Experimental data taken from article PMC10227063 (Communications Biology, 2023).
Changes are numbered by the printed parent chain. In names and notes the source's numbering stands.

B1: YfkE (Bacillus subtilis subsp. subtilis str. 168) (protein)
chain: MNRIFFILVAAGVPLSVIGSLMHWPSAVLFAVYCVTIIALASYMGRATESLSIIAGPRIGGLLNATFGNAVELIISLFALKEGLTGIVLASLTGSVLGNLLLVAGLSFFVGGLKYKRQEFNIHDARHNSGLLIFAIIVAFVIPEVFSVGMGNASKLNLSIGISIIMILLYVAALYFKLVTHRGVYQPNNAAQTEEEEEPEWSGKVATIVLFAATIVVAYISENLVHTFHSVAEQFGWSELFIGVIIVAIVGNAAEHASAIIMAFKNKMDIAVEIAVGSTLQIAMFVAPVLVICSIFFPTSMPLVFTLPELVAMVSAVLLMIAISNDGDSNWFEGATLLAAYVIMAIGFFLL
B2: YfkE (Bacillus subtilis subsp. subtilis str. 168; R3A) (protein)
chain: B1 chain with R3A
B3: YfkE (Bacillus subtilis subsp. subtilis str. 168; H256A) (protein)
chain: B1 chain with H256A
B4: YfkE (Bacillus subtilis subsp. subtilis str. 168; Q281A) (protein)
chain: B1 chain with Q281A
B5: YfkE (Bacillus subtilis subsp. subtilis str. 168; N252A) (protein)
chain: B1 chain with N252A
B6: YfkE (Bacillus subtilis subsp. subtilis str. 168; N99A) (protein)
chain: B1 chain with N99A

Experiments:
[1] = molecular target: T1, YfkE (Bacillus subtilis, UniProt O34840); assay: biochemical
T1 construct: gene chaA

[2] = substrate: O=P(O)(O)O; assay: cells, lysate or membranes; settings: outward H+ gradient by NADH, room temperature, labelled compound
[3] = co-substrate Ca2+, residue printed R3 in table but R4 in text
[4] = co-substrate Ca2+, 5x more vesicles than WT

Molecule	Km [2, 4]	Vmax [2, 4]	also measured
O=P(O)(O)O [inorganic phosphate]			Kd [1]: 930 ± 360 µM
B1			Km ([2]; co-substrate Ca2+ 0.1 mM): 4.9 mM
B2			Km [2, 3]: 5.5 mM; Vmax [2, 3]: 7.5e-05 µmol/min/mg
B3	34.2 mM	5.1e-05 µmol/min/mg	
B4	29.9 mM	1.9e-05 µmol/min/mg	
B5	8.2 mM	1.9e-05 µmol/min/mg	
B6	12.4 mM	3.9e-05 µmol/min/mg	
